According to publication doi:10.1101/2022.03.31.486524:

Key:
[1] = biological target: CelTOS N-terminal truncation mutant (Gly51-Asp196) (Plasmodium vivax); assay: SEC
[2] = biological target: CelTOS double mutant Lys122Asp, Leu164Asp (Plasmodium vivax); assay: SEC
[3] = biological target: Disulfide-locked CelTOS dimer (Ser55Cys, Ala123Cys) (Plasmodium vivax); assay: cross-linking

Work on “CelTOS N-terminal truncation mutant (Gly51-Asp196) (domain or fragment)” yielded a stoichiometry N [1] of 2.
“CelTOS double mutant Lys122Asp, Leu164Asp (natural protein)” was tested, and the stoichiometry N [2] was 2.
Substance “Disulfide-locked CelTOS dimer (Ser55Cys, Ala123Cys) (natural protein)” has a precursor abundance of cross-linked species [3] of 70% and a stoichiometry N [3] of 2.
